This is an account of results in patent publication US20220073643A1.

Positions count from the first letter of the chain named.

The target of the experiment is Claudin18.2-His protein (human). The experiment is described as follows: indirect ELISA on coated Claudin18.2-His. (An ELISA detects its analyte on a solid surface through an enzyme-linked reagent.)

B1: 409G10G6 (antibody, V domains shown)
VH: DVQLVESGGGLVQPGGSRKLSCAASGFTFSGFGMHWIRQTPEKGLEWVAYISSDSRPIYYADTVKGRFTISRDNPKNTLFLQMTSLRSEDTAMYFCGRFYYGNSFDHWGQGTLVTVSA
VL: DIVMTQSPSFLTVTAGEKVTLSCRSSQSLLNSGNQRNYLTWYQQKPGQPPKLLIYWASTRESGVPDRFTGSGSGTDFTLTISSVQAEDRALYYCQNAYSFPLTFGTGTKLELR
Broadly, the EC50 is the midpoint of the concentration-response curve. Low values mean higher potency in that assay, high ones lower potency in that assay. For B1, the EC50 was 9.52 ng/mL.

B2: 411A6E3 (antibody, V domains shown)
VH: B1 VH with G31D, D54G, G97V, Y101F
VL: B1 VL with L21M, S22T, S28N, Q35L, R36K, Y55S, A86P, R89L, T106A, R113K
Regarding B2, the EC50 came out at 6.74 ng/mL.

B3: 419A5F3 (antibody, V domains shown)
VH: B1 VH
VL: B1 VL
As to B3, the EC50 is 5.51 ng/mL.

B4: 200A4H8 (antibody, V domains shown)
VH: QVQLKQSGPGLVQPSQSLSITCTVSGFSLTRYGVHWVRQSPGKGLEWLGVIWSGGNTDYNAAFISRLNIRKDNSKSQVFFKMNSLKPNDTAIYYCARAAYFGNSFDYWGQGTTLTVSS
VL: DIVMTQSPSSLPVTAGEKVTMSCKSSQSLLNSGNQKNYLTWYQQKPGQPPKLLIYWASTRDSGVPDRFTGSGSGTDFTLTISSVQAEDLAVYYCQNNYIYPLTFGAGTKLELK
With B4, the EC50 is 10.5 ng/mL.

B5: 413B1C9 (antibody, V domains shown)
VH: B1 VH with G31S, I37V, T40A, D54G, R56S, G97A
VL: B4 VL with P12T, A15T, T20S, L30F, S32R, N37S, D61E
B5 registered an EC50 of 3.46 ng/mL.

B6: 414A5F7 (antibody, V domains shown)
VH: B1 VH with G31S, I37V, T40A, D54G, R56S, G97A, F99I, D106A, H107Y
VL: B4 VL with P12T, T20A, S28T, I54L, D61E, N97A, I99Y, A106S
B6 registered an EC50 of 8.05 ng/mL.

B7: 410H6H3 (antibody, V domains shown)
VH: DVLLVESGGGLVQPGGSRKLSCAASGFTFSSSGMHWVRQAPEKGLEWVAYISSGSNTIYYADTLKGRFTISRDNPKNTLFLQMTSLRSEDTAMYYCARIYYGNSFVYWGQGTLVTVSA
VL: B4 VL with P12T, T20I, L52M, D61E, T69R, I99Y, A106T, E111A
In turn, B7 had an EC50 of 2.93 ng/mL.

B8: 419A10D4 (antibody, V domains shown)
VH: B1 VH with D54G, G97A
VL: B1 VL with L21M, R24K, I81V, R89L, T106A, R113K
B8 registered an EC50 of 6.53 ng/mL.

B9: 411G3E10 (antibody, V domains shown)
VH: B1 VH with D54G, G97A
VL: B1 VL with L21M, S22N, R36K, R89L, T106A, R113K
For B9, the EC50 turned out to be 5.43 ng/mL.

B10: 411B4G4 (antibody, V domains shown)
VH: B1 VH with M34L, D54G, G97A
VL: B1 VL with L21M, R89L, T106A, R113K
B10 displayed an EC50 of 9.45 ng/mL.

B11: 416F12F3 (antibody, V domains shown)
VH: B7 VH with L3Q, S32F, N56S, D62H, T63S, L64V, R87G, I99F, V106A
VL: B4 VL with P12T, M21L, L52M, D61E, N97A, I99T, K109R
B11 displayed an EC50 of 11.5 ng/mL.

B12: 414H6G2 (antibody, V domains shown)
VH: B1 VH with P41A, D54G, K65Q, G97A
VL: B1 VL with L21M, R24K, R36K, R89L, T106A, R113K
With B12, the EC50 was determined as 11.6 ng/mL.

B13: 203A6C9 (antibody, V domains shown)
VH: B4 VH
VL: B4 VL
Molecule B13 had an EC50 of 65.4 ng/mL.

B14: 409D1A7 (antibody, V domains shown)
VH: B1 VH with D54G, Q82H, G97A
VL: B1 VL with L21M, S22N, R24K, R89L, T106A, R113N
For B14, the EC50 was found to be 7.75 ng/mL.

B15: 410A9A9 (antibody, V domains shown)
VH: B7 VH with L3Q, S32F, N56S, T57P, L64V, Y95F, R98T, I99F, V106A
VL: B4 VL with P12T, S28T, P46S, D61E, N97A, I99S, L102V, A106S, L110V
B15 gave an EC50 of 20.8 ng/mL.

B16: 418B8B10 (antibody, V domains shown)
VH: B1 VH with G31S, I37V, T40A, D54G, R56S, A61T, G97A
VL: B4 VL with P12T, T20S, L30F, S32R, N37S, K45R, D61E
Regarding B16, the EC50 is 8.87 ng/mL.

B17: 413C12F8 (antibody, V domains shown)
VH: B1 VH with M34V, S52G, D54G, G97A
VL: B1 VL with L21M, S22N, R36K, K45R, R89L, T106A, R113K
Turning to B17, the EC50 turned out to be 6.82 ng/mL.

B18: 412B6E4 (antibody, V domains shown)
VH: DVQLVESGGGLVQPGGSRKLSCAASGFTFSSFGVHWVRQAPEKGLEWVAYISSGSSTIYYAHSVKGRFTISRDNPKNTLFLQMTSLGSEDTATYYCARFYYGNSFAYWGQGTLVTVSA
VL: B4 VL with P12T, L52M, D61E, N97A, I99T, K109R
With B18, the EC50 worked out at 6.31 ng/mL.

B19: 417A6F11 (antibody, V domains shown)
VH: EVQLQQSGPELVKPGASMKISCKASGYSFTGYTMNWVKQSHGKNLEWIGLINPYNGGTSYNQKFKGKATLTVDKSSSTAYMELLSLTSEDSAVYYCARGDYWGQGTTLTVSS
VL: DIVMTQSPSSLTVTAGEKVTMSCKSSQSLLNSGNQKNYLTWYQQKPGQPPKLLIYWASTRESGVPDRFTGSGSGTDFTLTISSVQAEDLAVYYCQNDYSYPTFGAGTKLELK
B19 registered an EC50 of 42.8 ng/mL.

B20: 201F4H6 (antibody, V domains shown)
VH: QVQLKESGPGLVAPSQSLSITCTVSGFSLTSYGVSWVRQPPGKGLECLGVIWAGGNTNYNSALMSRLSISKDKSKSQVFLKMNSLQTDDTAMYYCARVYYGNAMDYWGQGTSVTVSS
VL: DIVMTQSPSSLTVTAGEKVTMSCKSSQSLLNSGNQKSYLTWYQQRPGQPPKLLIYWASTRESGVPDRFTGSGSGTDFTLTISSVQAEDLAVYFCQNVYFFPFTFGSGTKLETK
Regarding B20, the half-maximal effective concentration (EC50) came to 119 ng/mL.
